The text below walks through data of patent US8530621B2, “Combined preparation of a thiazide diuretic and a loop diuretic” (The Regents of the University of California, priority 2007, dated 2013).

In experiment [1] the target is T1, integrin αIIbβ3 (Homo sapiens, UniProt P05106+P08514).
T1 construct: expressed in transfected cells; host or cells: CHO (A5 cells)
Nature of the experiment: PAC1 binding by flow cytometry in A5 cells transfected with talin F23. Format: cell-based. Conditions: CHO cells stably expressing WT human αIIbβ3 (A5 cells), transient transfection with HA-talin F23. The source says:
(§1) A-B. CHO cells were transiently transfected with plasmids encoding αIIb and β3, or mutants thereof. In some samples (indicated above) a plasmid encoding a shRNA for talin-1 (Tadokoro et. al. 2003) or a control shRNA was co-transfected with the integrin plasmids. Cells were double stained for integrin αIIbβ3 expression (B-D57) and activated αIIbβ3 (PAC1) and flow cytometry was used to measure the geometric mean fluorescence intensity (F) of PAC1 binding. Non-specific PAC1 binding (F0) was measured in the presence of a competitive antagonist of αIIbβ3, Ro43-5054 and maximal binding (Fmax) was measured in the presence of the activating antibody Anti-LIBS6. Activation index was defined as 100*(F−F0)/(Fmax−F0) (see Experimental Procedures). A. Activation of αIIb(R995A)β3 integrin was diminished in the cells co-transfected with talin-1 knockdown shRNA. Similarly, the β3(Y747A) mutation blocks talin binding to the MD site and the αIIb(R995A)β3(Y747A) integrin is not activated. B. Talin-mediated activation requires specific contacts between talin F3 and the β3 MP region. Depicted is the Activation Index (gray bars) or the αIIbβ3 expression, indicated as fluorescence intensity of D57 staining (black bars). The activating effect of αIIb(R995A) is diminished when it is paired with the β3 MP mutants β3(F727A) or β3(F730A). C-D. CHO cells stably expressing WT human αIIbβ3 (A5 cells), or a high-affinity chimeric integrin (αβPy cells), were transiently co-transfected with vectors for WT or mutant HA-tagged talin F23 and eGFP protein as a transfection marker. PAC1 binding was measured by flow cytometry in the subset of cells expressing GFP. Insets show representative western blots of cell lysates probed with anti-HA antibody and indicate that WT and mutant HA-talin F23 expressed to similar levels. C. Specific PAC1 binding in αIIbβ3-expressing A5 cells transfected with talin F23 mutants relative to that in cells transfected with wild type talinF23 (set as 100). […] D. PAC1 binding in αIIbα6β3β1-expressing αβPy cells transfected with talin F23 or its mutants relative to that in cells transfected with empty vector (set as 100). The MP-contacting talin F23 mutants (L325R, S365D, S379R, Q381V) inhibited activation, whereas the MD-contacting mutant talin F23(W359A) had no significant effect on activation levels. All data are an average of three of more measurements, error bars are standard deviations.
Contacts between talin and the MP region of the β3 cytoplasmic tail may constitute an interaction that is a key to the activation process. To test this concept, the effects of a number of designed mutations, both in the β3 tail and in the talin F3 sub-domain, were investigated. Integrin activation was assessed using the antibody PAC1 and flow cytometry as previously described (Partridge et al., 2005).
For experiments to assess the functional effect of point mutants in the β3 tail, CHO cells were co-transfected with pCDM8 plasmids coding for wildtype or mutant sequences of […] and β3. Transfection was done using the plus reagent and lipofectamine (Life Technologies); 24 hours later cells were stained with B-D57 and PAC1 in the presence and absence of Ro43-5054 or Anti-LIBS6. The biotinylated monoclonal antibody, B-D57 was used to detect expression of αIIbβ3, while PAC1, an activation specific, monoclonal IgM antibody was used to assess the activation state of the αIIbβ3 integrin. This antibody is an authentic ligand for integrin αIIbβ3 (Abrams et al., 1994) and its binding correlates with the binding of natural ligands, such as fibrinogen (Shattil et al., 1985). Cells were analyzed on a FACScan using both B-D57 and PAC1 antibodies as described previously (Partridge et al., 2005). The geometric mean fluorescence intensity (MFI) of PAC1 staining in the presence of Ro43-5054 (2 μM) was used to estimate non-specific PAC1 binding (F0). […]
A general note: Flow cytometry measures light scatter and fluorescence of single cells or particles in a stream.

The subject of experiment [2] is αIIbα6β3β1 high-affinity chimeric integrin (αβPy cells). Description: PAC1 binding by flow cytometry in αβPy cells transfected with talin F23 or DOK1. Conditions: talin-dependent constitutively active chimeric integrin, transient transfection. Format: cell-based.
Source text: as §1
A. CHO cells stably expressing a high-affinity chimeric integrin (αβPy cells) were transiently co-transfected with empty vector (pCDNA3.1), WT talin F23 or full-length DOK1; eGFP protein was used as a transfection marker. The level of integrin activation was measured by flow cytometry of harvested cells using PAC1 antibody as described in the legend to FIG. 3. Data are an average of three or more measurements; error bars are standard deviations. B. Overlay of the DOK and talin PTB domains. The critical differences between the two domains are the residues between strands S1 and S2. C. Weighted shift map (see Experimental Procedures) obtained by observing ^1H-^15N HSQC spectra on addition of the β3/PIPKIα peptide to the DOK PTB domain (10:1 molar ratio). Grey columns indicate residues whose peaks experienced severe line broadening in the bound state and could not be assigned.
To investigate this possibility we used αβPy cells, a CHO cell-line expressing a talin-dependent constitutively active chimeric integrin composed of the extracellular and transmembrane domains of αIIbβ3 and the cytoplasmic tails of α6β1 (Baker et al., 1997). We transiently transfected αβPy cells with cDNAs encoding the mutant F23 constructs (L325R, S365D, S379R, or Q381V).
For experiments to assess the functional effect of point mutants in the β3 tail, CHO cells were co-transfected with pCDM8 plasmids coding for wildtype or mutant sequences of βIIb and β3. […]

B1: L325R: HA-tagged mouse talin F23 (residues 206-405) mutant L325R expressed by transfection (protein, UniProt P26039 206-405, looked up, variant L325R)
chain: SRDPVQLNLLYVQARDDILNGSHPVSFDKACEFAGFQCQIQFGPHNEQKHKAGFLDLKDFLPKEYVKQKGERKIFQAHKNCGQMSEIEAKVRYVKLARSLKTYGVSFFLVKEKMKGKNKRVPRLLGITKECVMRVDEKTKEVIQEWSLTNIKRWAASPKSFTLDFGDYQDGYYSVQTTEGEQIAQLIAGYIDIILKKKKS
modifications: F2-F3 subdomains HA tag
notes: HA-tagged mouse talin F23 (residues 206-405) mutant L325R expressed by transfection
As to B1, the “integrin αIIbβ3 activation (PAC1 binding)” value (“integrin αIIbβ3 activation” below) in experiment [1] is “diminished the ability of F23 to activate integrin αIIbβ3”. Moreover, the “integrin activation (PAC1 binding)” value in experiment [2] is given as “blocked integrin activation”.

B2: F23(W359A): talin F23 mutant W359A that strongly inhibits the MD binding site (protein)
chain: SRDPVQLNLLYVQARDDILNGSHPVSFDKACEFAGFQCQIQFGPHNEQKHKAGFLDLKDFLPKEYVKQKGERKIFQAHKNCGQMSEIEAKVRYVKLARSLKTYGVSFFLVKEKMKGKNKLVPRLLGITKECVMRVDEKTKEVIQEWSLTNIKRAAASPKSFTLDFGDYQDGYYSVQTTEGEQIAQLIAGYIDIILKKKKS
modifications: left off: small tags and cut ends
For B2, the “integrin αIIbβ3 activation” value in experiment [1] is recorded as “prevent activation”. For the same molecule, in experiment [2], the “integrin activation (PAC1 binding)” value is reported as “had no effect on activation”.

B3: S365D: HA-tagged mouse talin F23 (residues 206-405) mutant S365D expressed by transfection (protein, UniProt P26039 206-405, looked up, variant S365D)
chain: SRDPVQLNLLYVQARDDILNGSHPVSFDKACEFAGFQCQIQFGPHNEQKHKAGFLDLKDFLPKEYVKQKGERKIFQAHKNCGQMSEIEAKVRYVKLARSLKTYGVSFFLVKEKMKGKNKLVPRLLGITKECVMRVDEKTKEVIQEWSLTNIKRWAASPKDFTLDFGDYQDGYYSVQTTEGEQIAQLIAGYIDIILKKKKS
modifications: F2-F3 subdomains HA tag
notes: HA-tagged mouse talin F23 (residues 206-405) mutant S365D expressed by transfection
B3: the “integrin αIIbβ3 activation” value in experiment [1] is reported as “diminished the ability of F23 to activate integrin αIIbβ3”. Moreover, the “integrin activation (PAC1 binding)” value in experiment [2] is listed as “blocked integrin activation”.

B4: wild type F23: F2 and F3 sub-domains (F23) of talin, residues 206-405, wild type (protein, UniProt P26039 206-405, looked up, fragment)
chain: SRDPVQLNLLYVQARDDILNGSHPVSFDKACEFAGFQCQIQFGPHNEQKHKAGFLDLKDFLPKEYVKQKGERKIFQAHKNCGQMSEIEAKVRYVKLARSLKTYGVSFFLVKEKMKGKNKLVPRLLGITKECVMRVDEKTKEVIQEWSLTNIKRWAASPKSFTLDFGDYQDGYYSVQTTEGEQIAQLIAGYIDIILKKKKS
modifications: F2-F3 subdomains
notes: F2 and F3 sub-domains (F23) of talin, residues 206-405, wild type
For B4, in experiment [1], the “integrin αIIbβ3 activation” value is reported as “activated the integrin”. Also, the “integrin activation (PAC1 binding)” value in experiment [2] is reported as “modestly increased activation”.

B5: S379R: HA-tagged mouse talin F23 (residues 206-405) mutant S379R expressed by transfection (protein, UniProt P26039 206-405, looked up, variant S379R)
chain: SRDPVQLNLLYVQARDDILNGSHPVSFDKACEFAGFQCQIQFGPHNEQKHKAGFLDLKDFLPKEYVKQKGERKIFQAHKNCGQMSEIEAKVRYVKLARSLKTYGVSFFLVKEKMKGKNKLVPRLLGITKECVMRVDEKTKEVIQEWSLTNIKRWAASPKSFTLDFGDYQDGYYRVQTTEGEQIAQLIAGYIDIILKKKKS
modifications: F2-F3 subdomains HA tag
notes: HA-tagged mouse talin F23 (residues 206-405) mutant S379R expressed by transfection
Regarding B5, in experiment [1], the “integrin αIIbβ3 activation” value is “diminished the ability of F23 to activate integrin αIIbβ3”. Moreover, in experiment [2], the “integrin activation (PAC1 binding)” value is listed as “blocked integrin activation”.

B6: Q381V: HA-tagged mouse talin F23 (residues 206-405) mutant Q381V expressed by transfection (protein, UniProt P26039 206-405, looked up, variant Q381V)
chain: SRDPVQLNLLYVQARDDILNGSHPVSFDKACEFAGFQCQIQFGPHNEQKHKAGFLDLKDFLPKEYVKQKGERKIFQAHKNCGQMSEIEAKVRYVKLARSLKTYGVSFFLVKEKMKGKNKLVPRLLGITKECVMRVDEKTKEVIQEWSLTNIKRWAASPKSFTLDFGDYQDGYYSVVTTEGEQIAQLIAGYIDIILKKKKS
modifications: F2-F3 subdomains HA tag
notes: HA-tagged mouse talin F23 (residues 206-405) mutant Q381V expressed by transfection
Take B6: the “integrin αIIbβ3 activation” value in experiment [1] is “diminished the ability of F23 to activate integrin αIIbβ3”. For the same molecule, the “integrin activation (PAC1 binding)” value in experiment [2] is reported as “blocked integrin activation”.

B7: DOK1: PTB-containing protein, full-length DOK1, transfected into αβPy cells (protein)
chain: MDGAVMEGPLFLQSQRFGTKRWRKTWAVLYPASPHGVARLEFFDHKGSSSGGGRGSSRRLDCKVIRLAECVSVAPVTVETPPEPGATAFRLDTAQRSHLLAADAPSSAAWVQTLCRNAFPKGSWTLAPTDNPPKLSALEMLENSLYSPTWEGSQFWVTVQRTEAAERCGLHGSYVLRVEAERLTLLTVGAQSQILEPLLSWPYTLLRRYGRDKVMFSFEAGRRCPSGPGTFTFQTAQGNDIFQAVETAIHRQKAQGKAGQGHDVLRADSHEGEVAEGKLPSPPGPQELLDSPPALYAEPLDSLRIAPCPSQDSLYSDPLDSTSAQAGEGVQRKKPLYWDLYEHAQQQLLKAKLTDPKEDPIYDEPEGLAPVPPQGLYDLPREPKDAWWCQARVKEEGYELPYNPATDDYAVPPPRSTKPLLAPKPQGPAFPEPGTATGSGIKSHNSALYSQVQKSGASGSWDCGLSRVGTDKTGVKSEGST
In the case of B7, the “integrin activation (PAC1 binding)” value in experiment [2] is recorded as “inhibited integrin activation”.
